According to US20210115124A1 (Genentech, published 2021):
Positions count from the first letter of the chain named. Names and notes keep the numbering of the source.

T1: human VEGF (hVEGF) (human, UniProt P15692 181-395)
T1 construct: also called VEGF-A
T1 sequence: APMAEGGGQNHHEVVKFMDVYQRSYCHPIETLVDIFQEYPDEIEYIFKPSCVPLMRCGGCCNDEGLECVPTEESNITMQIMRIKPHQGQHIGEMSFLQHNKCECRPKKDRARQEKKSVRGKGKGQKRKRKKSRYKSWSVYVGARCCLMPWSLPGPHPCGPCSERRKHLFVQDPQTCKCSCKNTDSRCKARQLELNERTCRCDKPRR

T2: VEGF (as used in the HUVEC migration assay) (Homo sapiens (Human), UniProt P15692 181-395)
T2 sequence: T1 sequence

B1: G6.31 HC-Y58R (Fab, name in Kabat numbering, V domains shown)
VH: EVQLVESGGGLVQPGGSLRLSCAASGFTISDYWIHWVRQAPGKGLEWVAGITPAGGYTRYADSVKGRFTISADTSKNTAYLQMNSLRAEDTAVYYCARFVFFLPYAMDYWGQGTLVTVSS
VL: DIQMTQSPSSLSASVGDRVTITCRASQDVSTAVAWYQQKPGKAPKLLIYSASFLYSGVPSRFSGSGSGTDFTLTISSLQPEDFATYYCQQGYGNPFTFGQGTKVEIK
notes: Fab
B2: G6.31 LC-L73G (Fab, V domains shown)
VH: B1 VH with R59Y
VL: B1 VL with L73G
notes: Fab
B3: G6.31 HC-N82aR (Fab, name in Kabat numbering, V domains shown)
VH: B1 VH with R59Y, N84R
VL: B1 VL
notes: Fab
B4: G6.31 LC-N94A (Fab, V domains shown)
VH: B1 VH with R59Y
VL: B1 VL with N94A
notes: Fab
B5: G6.31 LC-Y36G (Fab, V domains shown)
VH: B1 VH with R59Y
VL: B1 VL with Y36G
notes: Fab
B6: G6.31 LC-F83A (Fab, V domains shown)
VH: B1 VH with R59Y
VL: B1 VL with F83A
notes: Fab
B7: G6.31 HC-T57E (Fab, name in Kabat numbering, V domains shown)
VH: B1 VH with T58E, R59Y
VL: B1 VL
notes: Fab
B8: G6.31 AAEE (LC-N94A.LC-F83A.HC-A40E.HC-T57E) (Fab, V domains shown)
VH: B1 VH with A40E, T58E, R59Y
VL: B1 VL with F83A, N94A
notes: Fab; also called HC-A40E, HC-T57E, LC-F83A, LC-N94A
B9: G6.31 LC-N94A.LC-F83A (Fab, V domains shown)
VH: B1 VH with R59Y
VL: B1 VL with F83A, N94A
notes: Fab; also called LC-F83A, LC-N94A; LCcombo5
B10: HA100K-G6.31 AARR (other)
VH: B1 VH with N84R
VL: B1 VL with F83A, N94A
modifications: free hinge cysteine of the Fab-C heavy chain linked through maleimide to linear 100 kDa hyaluronic acid
B11: G6.31 LC-F83V (Fab, V domains shown)
VH: B1 VH with R59Y
VL: B1 VL with F83V
notes: Fab

Target: T1, human VEGF (hVEGF)
Assay: SPR single-cycle
Text: (§1) To determine the binding affinity of selected Fab variants, SPR measurement with a BIACORE® T200 instrument was used. Briefly, series S sensor chip CM5 was activated with 1-ethyl-3-(3-dimethylaminopropyl) carbodiimide (EDC) and N-hydroxysuccinimide (NHS) reagents according to the supplier's instructions, and human VEGF (hVEGF) was coupled to achieve 50-80 response units (RU), then following by blocking un-reacted groups with 1M ethanolamine.
(§2) Three-fold serial dilutions of Fab in HBS-P buffer (0.01 M HEPES pH 7.4, 0.15 M NaCl, 0.005% surfactant P20) from low (0.02 nM) to high (50 nM) were injected (flow rate: 30 μl/min). The binding responses on hVEGF were corrected by subtracting of RU from a blank flow cell. The sensorgram was recorded and subject to reference and buffer subtraction before evaluating by BIACORE® T200 Evaluation Software (version 2.0). Association rates (kₒₙ) and dissociation rates (koff) were calculated using a simple one-to-one Langmuir binding model. The equilibrium dissociation constant (Kd) was calculated as the ratio koff/kₒₙ.

Row | Fold difference (relative to G6.31) [fold] | Kd [nM] | koff [s⁻¹] | kon [M⁻¹ s⁻¹] | Binder
1 | 9.1 | 0.17 | 0.000255 | 1.48e+06 | B1
2 | 1.4 | 1.09 | 0.000644 | 589000 | B2
3 | 6.7 | 0.23 | 0.000322 | 1.39e+06 | B3
4 | 0.4 | 3.93 | 0.00131 | 334000 | B4
5 | 0.6 | 2.47 | 0.000558 | 225000 | B5
6 | 3.1 | 0.5 | 0.000433 | 855000 | B6
7 | 7.7 | 0.2 | 0.000402 | 1.93e+06 | B7

Target: T2, VEGF (as used in the HUVEC migration …)
Assay: cell-based or functional assay

Row | IC50 relative to G6.31, VEGF-induced HUVEC migration [fold] | Binder
8 | 0.9 | B8
9 | 5.2 | B4
10 | 5.1 | B9

Target: T1, human VEGF (hVEGF)
Assay: SPR multiple-cycle
Text: as §1, §2

Row | Kd [nM] | koff [s⁻¹] | kon [M⁻¹ s⁻¹] | Binder
11 | 1.06 | 0.00169 | 1.59e+06 | B4

Target: T1, human VEGF (hVEGF)
Assay: SPR

Row | fold increase in affinity compared to wild-type G6.31 [fold] | Binder
12 | 8 to 9 | B1
13 | ~1.6 | B2
14 | ~6.6 | B3
15 | 3 | B6
16 | 8 to 9 | B7

Target: T1, human VEGF (hVEGF)
Assay: SPR
Remark: another data set of the same source
Text: as §1, §2

Row | Kd [nM] | koff [s⁻¹] | kon [M⁻¹ s⁻¹] | Binder
17 | 0.584 | 0.000741 | 1.27e+06 | B8
18 | 1.71 | 0.00111 | 648000 | B9

Target: T1, human VEGF (hVEGF)
Assay: SPR
Remark: another data set of the same source
Text: as §1, §2

Row | Kd [nM] | koff [s⁻¹] | kon [M⁻¹ s⁻¹] | Binder
19 | 1.43 | 0.000766 | 537000 | B9

Target: T2, VEGF (as used in the HUVEC migration …)
Assay: cell-based or functional assay
Remark: another data set of the same source

Row | IC50 (read off the curve), VEGF-induced HUVEC migration [nM] | Binder
20 | ~7 | B4

Target: T1, human VEGF (hVEGF)
Assay: SPR
Remark: another data set of the same source
Text: as §1, §2

Row | Kd [nM] | koff [s⁻¹] | kon [M⁻¹ s⁻¹] | Binder
21 | 0.58 | 0.000741 | 1.27e+06 | B8
22 | 1.06 | 0.00169 | 1.56e+06 | B4
23 | 1.71 | 0.00111 | 648000 | B9

Target: T1, human VEGF (hVEGF)
Assay: BIACORE SPR on immobilised hVEGF; label beside the mutation on the structure of the VEGF-bound G6 Fab (PDB 2FJG)

Row | fold change in binding affinity (Kd) compared to G6.31 [x] | Binder
24 | 2 | B2
25 | 0.5 | B5
26 | 3 | B6

Target: human VEGF165 (human, UniProt P15692-4 27-191)
Assay: cell-based or functional assay

Row | fold increase in potency against the unconjugated parent Fab, pKDR assay [fold] | Binder
27 | ~7 | B10

Target: T1, human VEGF (hVEGF)
Assay: SPR
Remark: another data set of the same source
Text: as §1, §2

Row | Fold improved (relative to WT) [fold] | Kd [nM] | koff [s⁻¹] | kon [M⁻¹ s⁻¹] | Binder
28 | 6.9 | 0.076 | 0.000184 | 2.42e+06 | B1
29 | 6.8 | 0.077 | 0.000124 | 1.62e+06 | B3
30 | 0.5 | 1.06 | 0.00169 | 1.59e+06 | B4
31 | 4 | 0.132 | 0.000218 | 1.65e+06 | B6

Target: T1, human VEGF (hVEGF)
Assay: SPR (FIG. 10D)

Row | fold increase in affinity [fold] | Binder
32 | 3 | B11

Target: T1, human VEGF (hVEGF)
Assay: BIACORE SPR on immobilised hVEGF; label beside the mutation on the structure of the VEGF-bound G6 Fab (PDB 2FJG)
Remark: another data set of the same source

Row | fold change in binding affinity (Kd) compared to G6.31 [x] | Binder
33 | 9 | B1
34 | 7 | B3
35 | 8 | B7
